For data set [1], the target named is T1, ACS2-G (Pyrococcus furiosus, UniProt E7FHP1+Q8U3D6).
T1 construct: gene acdAII
As to conditions: reverse reaction; 20 mM acid, 1 mM ATP or GTP, 0.5 mM CoA, 2 mM MgCl2, pH 7.0, 80°C.

In data set [2] the target is T2, ACS3-G (Pyrococcus furiosus, UniProt E7FHP1+Q8U461).
T2 construct: gene PF0233
The settings on record: reverse reaction; 20 mM acid, 1 mM ATP or GTP, 0.5 mM CoA, 2 mM MgCl2, pH 7.0, 80°C.

Substrate in data set [3]: CC(=O)SCCNC(=O)CCNC(=O)[C@H](O)C(C)(C)COP(=O)(O)OP(=O)(O)OC[C@H]1O[C@@H](n2cnc3c(N)ncnc32)[C@H](O)[C@@H]1OP(=O)(O)O
Put plainly: DTNB assay of released CoASH, 96-well. Format: biochemical, Pyrococcus furiosus. The settings on record: forward reaction, 2 mM ADP, 10 mM K2HPO4, 2 mM MgCl2, pH 7.0, 80°C. An excerpt:
(§1) DTNB assay of released CoASH, 96-well on ACS5-A

Substrate in data set [4]: CC(C)C(=O)SCCNC(=O)CCNC(=O)[C@H](O)C(C)(C)COP(=O)(O)OP(=O)(O)OC[C@H]1O[C@@H](n2cnc3c(N)ncnc32)[C@H](O)[C@@H]1OP(=O)(O)O
Put plainly: DTNB assay of released CoASH, 96-well. Format: biochemical, Pyrococcus furiosus. The settings on record: forward reaction, 2 mM ADP, 10 mM K2HPO4, 2 mM MgCl2, pH 7.0, 80°C.
Description: as §1

Substrate in data set [5]: CC(C)CC(=O)SCCNC(=O)CCNC(=O)[C@H](O)C(C)(C)COP(=O)(O)OP(=O)(O)OC[C@H]1O[C@@H](n2cnc3c(N)ncnc32)[C@H](O)[C@@H]1OP(=O)(O)O
The experiment in a line: DTNB assay of released CoASH, 96-well. Format: biochemical, Pyrococcus furiosus. As to conditions: forward reaction, 2 mM ADP, 10 mM K2HPO4, 2 mM MgCl2, pH 7.0, 80°C.
Description: as §1

This is an account of results in paper PMC3942289, “Characterization of Ten Heterotetrameric NDP-Dependent Acyl-CoA Synthetases of the Hyperthermophilic Archaeon Pyrococcus furiosus” (Archaea, 2014).

T2 sequence (Q8U461 1-465): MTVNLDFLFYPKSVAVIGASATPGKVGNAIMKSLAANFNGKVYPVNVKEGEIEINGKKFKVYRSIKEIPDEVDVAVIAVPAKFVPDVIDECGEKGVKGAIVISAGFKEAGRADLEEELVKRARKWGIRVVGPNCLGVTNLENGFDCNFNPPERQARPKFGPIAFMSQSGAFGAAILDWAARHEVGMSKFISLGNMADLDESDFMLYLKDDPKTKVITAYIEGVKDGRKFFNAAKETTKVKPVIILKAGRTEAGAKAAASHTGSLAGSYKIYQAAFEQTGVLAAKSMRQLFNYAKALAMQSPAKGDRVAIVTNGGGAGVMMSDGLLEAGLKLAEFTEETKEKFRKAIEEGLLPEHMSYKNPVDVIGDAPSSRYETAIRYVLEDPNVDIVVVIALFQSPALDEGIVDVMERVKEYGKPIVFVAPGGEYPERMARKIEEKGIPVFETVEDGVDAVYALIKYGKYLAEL
T2 sequence (E7FHP1 whole entry): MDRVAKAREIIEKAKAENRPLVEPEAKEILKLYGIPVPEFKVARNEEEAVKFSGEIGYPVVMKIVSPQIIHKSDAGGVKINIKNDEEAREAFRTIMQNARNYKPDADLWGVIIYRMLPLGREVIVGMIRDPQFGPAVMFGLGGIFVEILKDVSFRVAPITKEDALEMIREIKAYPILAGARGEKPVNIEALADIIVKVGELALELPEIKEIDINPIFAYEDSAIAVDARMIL
T1 sequence (Q8U3D6 whole entry): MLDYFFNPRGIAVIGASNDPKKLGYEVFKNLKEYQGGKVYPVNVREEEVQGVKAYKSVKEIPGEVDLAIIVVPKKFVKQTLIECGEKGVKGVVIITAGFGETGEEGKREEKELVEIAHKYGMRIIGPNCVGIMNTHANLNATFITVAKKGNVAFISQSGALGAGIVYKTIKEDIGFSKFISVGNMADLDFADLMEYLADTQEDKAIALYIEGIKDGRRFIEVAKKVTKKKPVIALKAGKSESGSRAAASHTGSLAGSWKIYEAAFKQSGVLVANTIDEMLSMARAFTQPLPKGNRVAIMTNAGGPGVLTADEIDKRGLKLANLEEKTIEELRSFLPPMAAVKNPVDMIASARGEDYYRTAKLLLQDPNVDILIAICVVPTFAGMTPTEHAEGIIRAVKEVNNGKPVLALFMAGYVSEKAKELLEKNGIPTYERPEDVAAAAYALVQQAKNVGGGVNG
T1 sequence (E7FHP1 whole entry): as the sequence (E7FHP1 whole entry) above

As to `CSCCC(=O)O` [3-methylthiopropionate], the relative activity result in data set [1] is “Surprisingly, ACS2 was also active with 3-methylthiopropionate”.

Regarding `O=C(O)CCC(=O)O` [succinate], the relative activity entry in data set [2] was “The only isoenzyme that showed activity with succinate was ACS3”.

B1: ACS5-A (Pyrococcus furiosus DSM 3638) (protein)
chain 1: MINNLDIKEQLRSFFDPKAVAIIGATNKKGKVGNVIFENFKRNKERGIFKGNIYPVNPKLDEIDGYKVYHSVEELPDDTDLAVVAIPAPAVPETMRKIAEKGIKAVVIITGGFGELGEEGKRMEQEILEIARAHGIRVIGPNCVGVYVPDTGVDTVFLPEEKMDRPKSGPIAFVSQSGAFAAAMLDWAAMAGIGIGKMVSYGNKIDVDDADLMEYFAQDEQIKVMTFYIEGVKDGRRFMEVAKRVTKIKPIIALKSGRTEYGAKAASSHTGSLAGQDVIYDAVFKQTGIIRAEDFEHMFDLAKAFAKCKLPKGDRIGIITDGGGAGVMASDAVAKFGLKLAELSEETLRFLREKFPPHAVVGNPTDVVGDTDAERYRLALEAFTKDPNVDAILVIVLFQVPLLDEEEVIEIIADYAKKSDKPIVAVSMGGYKTDRYAKMLEEKGVPVYPTPERGVRALAGLVRYAEYLRKMGE
chain 2: MKGEALKIIEEVLAQGRTAMVEYEAKQVLKAYGLPVPEEKLAKTLDEALKYAEEIGYPVAMKLMSPQILHKSDAKVVMLNIKSPEELKKKWEEIHENARKYRPDAEIFGVLIAPMLKPGREVIIGVTEDPQFGHAIMFGLGGIFVEILKDVTFRIIPITEKDARKMITEIKAYPILAGARGEEPADIEAIVDMLLKVSKLVDDLKDYIKEMDLNPVFVYRKGEGAVVVDARIILKG
notes: alpha (pET24a) and beta-A (pET21b) coexpressed in E. coli BL21(DE3) pRIL, untagged, heat-treated and desalted; alpha2beta2 ~140 kDa; The same primer pair is printed for PF1838 and PF1837 (probable misprint)
As usually defined, the Km is the concentration of substrate that gives half-maximal velocity. One may read the kcat/Km as the turnover number divided by the Michaelis constant. For B1, the Km in data set [3] was determined as 620 ± 1.0 µM; in data set [4], 2730 ± 1080 µM; in data set [5], 820 ± 407 µM. Besides, the kcat/Km stood at 112000 M⁻¹ s⁻¹ in data set [3], 83000 M⁻¹ s⁻¹ in data set [4] and 120000 M⁻¹ s⁻¹ in data set [5].
